{
  "source": "paper PMC11239949",
  "key": {"[1]": {"molecular_target": "Mucin 1 (MUC1) on MCF-7 cells; aptamer designed against the VNTR region (UniProt P15941)", "sequence (P15941 whole entry)": "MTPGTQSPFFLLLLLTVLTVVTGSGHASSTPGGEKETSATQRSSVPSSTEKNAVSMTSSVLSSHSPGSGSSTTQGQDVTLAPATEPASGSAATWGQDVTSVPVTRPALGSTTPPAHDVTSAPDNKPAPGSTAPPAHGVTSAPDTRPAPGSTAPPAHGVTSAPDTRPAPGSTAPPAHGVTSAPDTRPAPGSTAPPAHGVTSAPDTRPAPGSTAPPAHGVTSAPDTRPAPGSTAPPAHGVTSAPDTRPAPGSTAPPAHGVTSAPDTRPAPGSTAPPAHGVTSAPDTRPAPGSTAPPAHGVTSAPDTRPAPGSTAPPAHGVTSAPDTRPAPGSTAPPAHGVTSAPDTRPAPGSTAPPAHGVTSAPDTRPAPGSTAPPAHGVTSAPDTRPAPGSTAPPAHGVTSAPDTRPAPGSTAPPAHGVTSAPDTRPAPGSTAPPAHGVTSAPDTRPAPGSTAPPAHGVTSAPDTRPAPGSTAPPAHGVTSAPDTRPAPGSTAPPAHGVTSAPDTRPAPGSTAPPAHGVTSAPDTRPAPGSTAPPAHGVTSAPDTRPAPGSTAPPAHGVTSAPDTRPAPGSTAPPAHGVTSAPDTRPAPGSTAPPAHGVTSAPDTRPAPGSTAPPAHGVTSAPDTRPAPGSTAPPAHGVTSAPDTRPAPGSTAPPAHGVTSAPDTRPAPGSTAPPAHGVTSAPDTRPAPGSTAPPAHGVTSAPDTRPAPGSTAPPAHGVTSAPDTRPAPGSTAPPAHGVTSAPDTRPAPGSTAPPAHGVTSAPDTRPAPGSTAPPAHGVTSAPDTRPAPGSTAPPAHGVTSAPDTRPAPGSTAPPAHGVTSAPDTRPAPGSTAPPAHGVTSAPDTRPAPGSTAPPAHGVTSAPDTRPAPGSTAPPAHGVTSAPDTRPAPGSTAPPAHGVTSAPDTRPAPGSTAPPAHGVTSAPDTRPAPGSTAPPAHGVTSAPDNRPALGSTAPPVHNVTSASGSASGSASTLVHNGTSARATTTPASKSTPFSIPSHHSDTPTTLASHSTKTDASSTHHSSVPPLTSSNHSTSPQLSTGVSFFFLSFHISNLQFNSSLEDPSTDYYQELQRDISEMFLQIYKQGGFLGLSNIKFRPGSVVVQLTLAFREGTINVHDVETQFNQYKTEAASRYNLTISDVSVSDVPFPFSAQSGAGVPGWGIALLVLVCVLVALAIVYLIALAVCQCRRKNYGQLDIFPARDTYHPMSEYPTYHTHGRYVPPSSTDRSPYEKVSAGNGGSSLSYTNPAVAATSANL", "test": "whole-cell capture on magnetic beads (fluorescence)", "details": "multivalent (apparent), 5x10^4 DAPI-stained MCF-7 cells added to 500 uL A-f-M13-MB (resuspended in PBS), 30 min, 37 C, one-site fit over aptamer concentration"}, "[2]": {"molecular_target": "Mucin 1 (MUC1) on MCF-7 cells; aptamer designed against the VNTR region (UniProt P15941)", "test": "whole-cell fluorescence binding", "details": "DBCO or NH2 at 5' (which version was used as free aptamer is not stated); 5x10^4 DAPI-stained MCF-7 cells added to 500 uL A-f-M13-MB (resuspended in PBS), 30 min, 37 C; one-site fit over aptamer concentration"}},
  "data": [
    {"sequence": "TTTTTGCAGTTGATCCTTTGGATACCCTGG [DBCO-Apt (S2.2) clicked on M13 pVIII]", "values": [
      {"measurement": "Kd", "setting": "[1]; A-f-M13-MB, flexible phage, 5' DBCO, coupled to N3-PEG on M13 phage sidewall", "result": 0.00109, "unit": "nM"},
      {"measurement": "Kd", "setting": "[1]; A-r-M13-MB, PFA-treated rigid phage, 5' DBCO, coupled to N3-PEG on M13 phage sidewall", "result": 0.0248, "unit": "nM"}
    ]},
    {"sequence": "TTTTTGCAGTTGATCCTTTGGATACCCTGG [NH2-Apt (S2.2) on magnetic beads]", "values": [
      {"measurement": "Kd", "setting": "[1]; A-MB, 5' NH2, coupled to carboxyl magnetic beads", "result": 21, "unit": "nM"}
    ]},
    {"sequence": "TTTTTGCAGTTGATCCTTTGGATACCCTGG [S2.2 aptamer, free (FAM-labelled)]", "values": [
      {"measurement": "Kd", "setting": "[2]", "result": 260, "unit": "nM"}
    ]}
  ]
}
